Results from the supplement of paper PMC12783771.
± gives the standard deviation of the averaged measurements.

B1: library; numbered along this chain (parent)
chain: MNIQIGELAKRTACPVVTIRFYEQEGLLPPPGRSRGNFRLYGEEHVERLQFIRHCRSLDMPLSDVRTLLSYRKRPDQDCGEVNMLLDEHIRQVESRIGALLELKHHLVELREACSGARPAQSCGILQGLSDCVCDTRGTTAHPSD

Legend:
[1] = variants of: B1; assay: sfGFP reporter fluorescence (15 h) (µM FITC); higher = higher leak; details: library round: Round 0; ligand: none
Summary of the method: (§1)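 An Echo normalized PCR-made linear PbrR templates to 5 nM and assembled 1 μL reactions in BL21 Star (DE3) PANOx-SP extract carrying the pPbrR-sfGFP reporter plasmid and 30 μg/mL GamS. Reactions received 1 µM lead chloride, 30 µM zinc acetate or no metal and stood 15 hr at 30 °C. Fluorescence at 485/528 nm (Synergy Neo2) was converted with FITC standard curves made in 50 mM sodium borate pH 8.5. Endpoint sfGFP signal is given in µM FITC, from up to three biological replicates.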

[2] = variants of: B1; assay: sfGFP reporter fluorescence (15 h) (µM FITC); higher = stronger transcriptional activation; details: library round: Round 0
Summary of the method: as §1

Variant | sfGFP reporter fluorescence [1] | sfGFP reporter fluorescence ([2]; ligand: 1 µM Pb) | sfGFP reporter fluorescence ([2]; ligand: 30 µM Zn)
MNIQIGELAKRTACPVVTIRFYEQEGLLPPPGRSRGNFRLYGEEHVERLQFIRHCRSLDMPLSDVRTLLSYRKRPDQDCGEVNMLLDEHIRQVESRIGALLELKHHLVELREACSGARPAQSCGILQGLSDCVCDTRGTTAHKSD | 0.0581 ± 0.00078 | 0.07293 ± 0.00052 | 0.889 ± 0.15
MNIQIGELAKRTACPVVTIRFYEQEGLLPPPGRSRGNFRLYGEEHVERLQFIRHCRSLDMPLSDVRTLLSYRKRPDQDCGEVNMLLDEHIRQVESRIGALLELKHHLVSLREACSGARPAQSCGILQGLSDCVCDTRGTTAHPSD | 0.0592 ± 0.00078 | 0.0803 ± 0.0026 | 1.47 ± 0.04
MNIQIGELAKRTACPVVTIRFYEQEGLLPPPGRSRGNFRLYGEEHVERLQFIRHCRSLDMPLSDVRTLLSYRKRPDQDCGEVNMLLDEHIRQVESRIGALLELKHHLVALREACSGARPAQSCGILQGLSDCVCDTRGTTAHPSD | 0.0636 ± 0.00078 | 0.0804 ± 0.0039 | 0.883 ± 0.35
MNIQIGELAKRTACPVVTIRFYEQEGLLPPPGRSRGNFRLYGEEHVERLQFIRHCRSLDMPLSDVRTLLSYRKRPDQDCGEVNMLLDEHIRQVWSRIGALLELKHHLVELREACSGARPAQSCGILQGLSDCVCDTRGTTAHPSD | 0.0577 ± 0.0039 | 0.05516 ± 0.00026 | 0.143 ± 0.0054
MNIQIGELAKRTACPVVTIRFYEQEGLLPPPGRSRGNFRLYGEEHVERLQFIRHCRSLDMPLSDVRTLLSYRKRPDQDCGEVNMLLDEHIRQVESRIGALLELKHHLVELREACSGARPAQSRGILQGLSDCVCDTRGTTAHPSD | 0.0599 ± 0.0023 | 0.061 ± 0.00078 | 0.0574 ± 0.0044
MNIQIGELAKRTACPVVTIRFYEQEGLLPPPGRSRGNFRLYGEEHVERLQFIRHCRSLDMPLSDVRTLLSYRKRPDQDCGEVNMLLDEHIRQVESRIGALLELKHHLVELREACSGARPAQSCGILQGRSDCVCDTRGTTAHPSD | 0.0588 ± 0.00078 | 0.05901 ± 0.00052 | 0.0557
MNIQIGELAKRTACPVVTIRFYEQEGLLPPPGRSRGNFRLYGEEHVERLQFIRHCRSLDMPLSDVRTLLSYRKRPDQDCGEVTMLLDEHIRQVESRIGALLELKHHLVELREACSGARPAQSCGILQGLSDCVCDTRGTTAHPSD | 0.0607 ± 0.00078 | 0.0759 ± 0.0015 | 0.226 ± 0.047
MNIQIGELAKRTACPVVTIRFYEQEGLLPPPGRSAGNFRLYGEEHVERLQFIRHCRSLDMPLSDVRTLLSYRKRPDQDCGEVNMLLDEHIRQVESRIGALLELKHHLVELREACSGARPAQSCGILQGLSDCVCDTRGTTAHPSD | 0.0658 ± 0.0029 | 0.08833 ± 0.00052 | 2.06 ± 0.079
MNIQIGELAKRTACPVVTIRFYEQEGLLPPPGRSRGNFRLYGEEHVERLQFIRHCRSLDLNLSKVRTLLSYRKRPDQDCGEVNMLLDEHIRQVESRIGALLELKHHLVELREACSGARPAQSCGILQGLSDCVCDTRGTTAHPSD | 0.611 ± 0.025 | 1.74 ± 0.19 | 3.74 ± 0.11
MNIQIGELAKRTACPVVTIRFYEQEGLLPPPGRSRGNFRLYGEEHVERLQFIRHCRSLDMPLSDVRTLLSYRKRPDQDCGEVNMLLDEHIRQVESRIGALLELKHHLVELREACSGARPAQSCGILQGLSNCVCDTRGTTAHPSD | 0.0654 ± 0.00078 | 0.103 ± 0.0093 | 1.13 ± 0.24
MNIQIGELAKRTACPVVTIRFYEQEGLLPPPGRSRGNFRLYGEEHVERLQFIRHKRSLDMPLSDVRTLLSYRKRPDQDCGEVNMLLDEHIRQVESRIGALLELKHHLVELREACSGARPAQSCGILQGLSDCVCDTRGTTAHPSD | 0.0608 ± 0.0015 | 0.061 ± 0.0018 | 0.0607 ± 0.00078
MNIQIGELAKRTACPVVTIRFYEQEGLLPPPGRSRGNFRLYGEEHVERLQFIRHCRSLDMPLSDVRTLLSYRKRPDQDCGEVNMLLDEHIRQVESRIGALLELKHHLVELRDACSGARPAQSCGILQGLSDCVCDTRGTTAHPSD | 0.0612 ± 0.0021 | 0.0722 ± 0.0026 | 0.565 ± 0.043
MNIQIGELAKRTACPVVTIRFYEQEGLLPPPGRSRGNFRLYGEEHVERLQFIRHCRSLDMNLSDVRTLLSYRKRPDQDCGEVNMLLDEHIRQVESRIGALLELVHHLVELREACSGARPAQSCGILQGLSDCVCDTRGTTAHPSD | 0.121 ± 0.016 | 0.385 ± 0.007 | 1.77 ± 0.47
MNIQIGELAKRTACPVVTIRFYEQEGLLPPPGRSRGNFRLYGEEHVERLQFIRHCRSLDMFLSDVRTLLSYRKRPDQDCGEVNMLLDEHIRQVESRIGALLELKHHLVELREACSGARPAQSCGILQGLSDCVCDTRGTTAHPSD | 0.0608 ± 0.0031 | 0.0651 ± 0.0023 | 0.09382 ± 0.00052
